Results from patent CN109750002A.

Legend:
[1] = molecular target: 人BTN3A3 (Butyrophilin subfamily 3 member A3), membrane form on cells (BT474-BTN3A3 overexpressing cells) (human) (UniProt O00478); test: adhesion assay by flow cytometry on BT474-BTN3A3 cells, with 5E08 mixed 1:1 (molar) with LSECtin as blocker
[2] = molecular target: 人BTN3A3 (Butyrophilin subfamily 3 member A3), membrane form on cells (BT474-BTN3A3 overexpressing cells) (human) (UniProt O00478); test: adhesion assay by flow cytometry on BT474-BTN3A3 cells, with control human IgG; LSECtin-positive ZSG-positive cells / ZSG-positive cells

UniProt O00478, sequence (O00478 30-584): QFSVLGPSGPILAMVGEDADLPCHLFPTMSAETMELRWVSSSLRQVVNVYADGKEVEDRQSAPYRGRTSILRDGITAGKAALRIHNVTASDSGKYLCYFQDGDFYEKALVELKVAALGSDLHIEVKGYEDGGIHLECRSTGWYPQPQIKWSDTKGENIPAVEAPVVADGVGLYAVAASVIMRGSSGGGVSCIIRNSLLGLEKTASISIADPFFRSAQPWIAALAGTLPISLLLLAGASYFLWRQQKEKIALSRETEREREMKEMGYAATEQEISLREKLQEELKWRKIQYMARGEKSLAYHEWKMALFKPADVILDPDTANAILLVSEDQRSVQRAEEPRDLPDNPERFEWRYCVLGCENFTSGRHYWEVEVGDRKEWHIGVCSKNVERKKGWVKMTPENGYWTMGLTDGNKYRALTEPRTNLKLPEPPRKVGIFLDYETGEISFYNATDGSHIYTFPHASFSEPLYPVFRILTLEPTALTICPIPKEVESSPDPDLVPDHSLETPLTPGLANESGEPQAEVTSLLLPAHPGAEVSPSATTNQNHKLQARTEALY

B1: LSECtin蛋白 (Liver Sinusoidal Endothelial Cells lectin) (ligand, UniProt Q6UXB4 53-293, looked up)
chain: LSKASTERAALLDGHDLLRTNASKQTAALGALKEEVGDCHSCCSGTQAQLQTTRAELGEAQAKLMEQESALRELRERVTQGLAEAGRGREDVRTELFRALEAVRLQNNSCEPCPTSWLSFEGSCYFFSVPKTTWAAAQDHCADASAHLVIVGGLDEQGFLTRNTRGRGYWLGLRAVRHLGKVQGYQWVDGVSLSFSHWNQGEPNDAWGRENCVMMLHTGLWNDAPCDSEKDGWICEKRHNC
Q: What does the source list for B1?
A: LSECtin粘附率 [1]: 1.4%; LSECtin粘附率 [2]: 16.1%
